Target: yeast two-hybrid activation domain-Tsg101 construct (full-length Tsg101) (human) (UniProt Q99816)
Assay: cell-based or functional assay

yeast two-hybrid activation domain-Tsg101 construct (full-length Tsg101) (human), sequence (Q99816 whole entry, the tested form may be a part): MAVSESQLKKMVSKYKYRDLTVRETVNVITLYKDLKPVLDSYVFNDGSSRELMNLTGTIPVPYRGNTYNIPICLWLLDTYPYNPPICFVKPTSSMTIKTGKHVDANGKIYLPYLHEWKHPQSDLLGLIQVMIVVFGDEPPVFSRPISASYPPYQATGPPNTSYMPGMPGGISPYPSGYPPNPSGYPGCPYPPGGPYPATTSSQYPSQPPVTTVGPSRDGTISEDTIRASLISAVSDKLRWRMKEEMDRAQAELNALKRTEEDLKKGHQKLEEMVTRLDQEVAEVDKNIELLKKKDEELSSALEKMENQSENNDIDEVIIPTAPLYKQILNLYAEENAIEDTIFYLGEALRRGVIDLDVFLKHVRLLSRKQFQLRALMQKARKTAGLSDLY

## yeast two-hybrid DNA binding domain-HIV1 GAGp6 construct, wild type (from UniProt P04386 1-147; P12493 449-500)
  β-galactosidase activity, two-hybrid liquid culture assay (fold over background): > 300

— patent US7202329
